The term Kd denotes the free concentration of one partner at which half of the binding sites on the other are occupied at equilibrium, for simple one-to-one binding. Low values mean higher affinity, high ones lower affinity.

Several values for one entry are separate records, joined by “and”; a condition that tells them apart may be missing. Equal values may be shown once.

This assay deals with human neonatal Fc receptor (FcRn), His-tagged (human) (UniProt P55899). Put plainly: BLI. Background: In BLI a coated tip is dipped into the sample, and binding shifts an interference pattern.
Sequence of UniProt P55899 (P55899 24-297, chain 1 of 2): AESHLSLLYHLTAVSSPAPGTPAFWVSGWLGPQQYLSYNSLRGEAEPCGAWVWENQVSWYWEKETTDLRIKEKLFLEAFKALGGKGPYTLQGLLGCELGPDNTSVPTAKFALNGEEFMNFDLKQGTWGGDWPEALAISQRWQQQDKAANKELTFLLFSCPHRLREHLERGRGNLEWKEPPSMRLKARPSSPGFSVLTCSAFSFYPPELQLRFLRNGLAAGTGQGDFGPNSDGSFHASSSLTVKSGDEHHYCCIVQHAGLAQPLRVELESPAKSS
Sequence of UniProt P55899 (P61769 21-119, chain 2 of 2, further chain): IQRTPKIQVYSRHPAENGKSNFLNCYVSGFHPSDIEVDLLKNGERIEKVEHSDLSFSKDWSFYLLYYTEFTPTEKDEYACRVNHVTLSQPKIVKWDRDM

Take “RGB-19 tocilizumab (proposed biosimilar, IV and SC drug products) (antibody)”: the Kd is 26.5 to 30.4 nM and 26.3 to 31.7 nM. As for “RoActemra^® tocilizumab (EU-sourced reference medicinal product, IV and SC) (antibody)”, the Kd was 19.2 to 34.5 nM and 17.6 to 35.4 nM.

The values above are taken from publication PMC12354568.
